For experiment [1], the system named is T1, CCT.
T1 construct: Take 20S mouse testis sucrose gradient fractions enriched in CCT; from tissue; host or cells: mouse testis, 20S sucrose gradient fractions
Nature of the experiment: Interaction of soluble biotinylated peptides with CCT (native PAGE, streptavidin/Neutravidin-HRP blot). The class given is binding, mouse.
Protocol: Mouse testis CCT was incubated singly or in combination with peptide 8 (lanes 1 and 2; SEQ ID NO: 18), peptide 8.1 (lane 3; SEQ ID NO: 19), peptide 8.2 (lane 4, SEQ ID NO: 20), peptide 8.3 (lane 5; SEQ ID NO: 21), peptide 8.4 (lane 6; SEQ ID NO: 22), peptide 8.5 (lane 7; SEQ ID NO: 23), or peptide 8.6 (lane 8; SEQ ID NO: 24) as listed in FIG. 11A and 11C. In all lanes, CCT was incubated with peptide on ice for one hour. Samples were electrophoresed on 6% native gels, transferred to nitrocellulose membrane and incubated with Neutravidin-HRP (Pierce) at 2 μg per ml to reveal the distribution of biotinylated peptides. […] The sequences in FIG. 11B (lane 3, residues 5 to 9 of SEQ ID NO: 19; lane 4, residues 5 to 9 of SEQ ID NO: 20; lane 5, residues 5 to 9 of SEQ ID NO: 21; lane 6, residues 5 to 9 of SEQ ID NO: 22; lane 7, residues 5 to 9 of SEQ ID NO: 23; lane 8, SEQ ID NO: 122) are the core sequences of the mutant Actin Site I sequences present in the peptides listed in FIGS. 11A and 11C.
The gel was western blotted and probed with streptavidin-HRP conjugate to determine the position of the biotinylated peptides (FIG. 11).
CCT and peptide corresponding to β-Actin Site I (FIG. 10, peptide 8) were incubated together and the reactions were then electrophoresed on native PAGE gels, western blotted and probed with streptavidin-Horse Radish Peroxidase (HRP). […]

For experiment [2], the system named is CCT. Nature of the experiment: In vitro translation in rabbit reticulocyte lysate, interaction with CCT on native PAGE. The class given is binding. To be noted: kinetics different from folding substrates actin or tubulins. As for the experimental part:
Time courses of interactions of cyclins with CCT were analysed on 6% native polyacrylamide gels (Liou & Willison,EMBO J. 16, 4311–4316, 1997). At the indicated times, 5 μl aliquots of the lysate reactions were added to 7 μl of […] EDTA (ph 8.0) and 4 μl of 4× gel loading buffer and placed on ice. The lanes 1–6 show CCT a at t=0, 5, 10, 20, 30, 60 minutes. Lanes 7–12 show pBSK CY1 1 (mouse D1) at t=0, 5, 10, 20, 30, 60 minutes.
Upon in vitro translation of actin mRNA in rabbit reticulocyte lysate, several truncated forms of ^35S-actin are captured by and accumulate on CCT. This is also the case for α-tubulin (Liou, K. F., et al, Biological Chem. Hoppe-Seler 379, 311–319, 1998). […] Thus, the actin is fragments are not ribosome released nascent chains, but are the consequence of initiation of translation at internal methionine residues in actin, and a comparison of the experimentally determined molecular weights of the truncated forms with the sequential occurrence of the methionines in mouse β-actin supports this interpretation. […] Therefore, no fragments smaller than 29 kDa are produced by internal initiation in the IVT reaction.
The present inventors made fusion proteins which linked β-Actin Site I (residues 31–70) or Site II residues 178–262; 6 of the peptides (Table 2) are located in this segment) containing fragments to the C-terminus of Ha-Ras (residues 1–166). […]

The target of experiment [3] is T2, human CCTγ subunit (human 293 cells) (human, UniProt P49368 1-545).
T2 sequence (looked up): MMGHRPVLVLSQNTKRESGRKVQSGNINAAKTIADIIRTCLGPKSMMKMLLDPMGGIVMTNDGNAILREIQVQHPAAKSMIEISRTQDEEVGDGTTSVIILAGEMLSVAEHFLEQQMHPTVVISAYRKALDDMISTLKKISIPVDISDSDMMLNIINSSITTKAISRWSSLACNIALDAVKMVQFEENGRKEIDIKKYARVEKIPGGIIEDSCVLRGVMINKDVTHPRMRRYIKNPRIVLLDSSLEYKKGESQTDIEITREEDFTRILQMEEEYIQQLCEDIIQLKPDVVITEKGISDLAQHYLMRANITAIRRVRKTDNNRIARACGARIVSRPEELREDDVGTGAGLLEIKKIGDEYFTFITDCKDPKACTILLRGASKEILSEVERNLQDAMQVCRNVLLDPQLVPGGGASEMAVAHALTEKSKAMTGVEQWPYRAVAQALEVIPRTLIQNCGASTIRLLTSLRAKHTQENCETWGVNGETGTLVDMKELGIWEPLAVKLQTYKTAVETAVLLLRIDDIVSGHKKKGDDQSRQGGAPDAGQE
Briefly: superimposable bands, non-denaturing PAGE Western blot of sucrose fractions 13 and 14 of human 293 cells. Background: Immunoblotting shows a protein as a band on a membrane.

Experiment [4] addresses T3, mouse CCTα subunit (wildtype) (mouse, UniProt P11983 1-556).
T3 construct: in the 23C experiment translated in vitro and incorporated into rabbit CCT; also called CCTa; CCTA
Briefly: superimposable bands, 6% non-denaturing PAGE Western blot of mouse testis sucrose fractions 13 and 14, subunit-specific antibodies.
Protocol: (§1) Sucrose gradient fractions 13 and 14 were resolved in a 6% non-denaturing polyacrylamide gel followed by Western blotting. The CCT subunit—subunit association patterns were determined by probing the blot sequentially with specific antibodies recognising the eight CCT subunits to locate superimposible bands.

In another experiment the target is T4, mouse CCTγ subunit (mouse, UniProt P80318 1-545).
T4 construct: Endogenous subunit in mouse testis sucrose fractions
T4 sequence (looked up): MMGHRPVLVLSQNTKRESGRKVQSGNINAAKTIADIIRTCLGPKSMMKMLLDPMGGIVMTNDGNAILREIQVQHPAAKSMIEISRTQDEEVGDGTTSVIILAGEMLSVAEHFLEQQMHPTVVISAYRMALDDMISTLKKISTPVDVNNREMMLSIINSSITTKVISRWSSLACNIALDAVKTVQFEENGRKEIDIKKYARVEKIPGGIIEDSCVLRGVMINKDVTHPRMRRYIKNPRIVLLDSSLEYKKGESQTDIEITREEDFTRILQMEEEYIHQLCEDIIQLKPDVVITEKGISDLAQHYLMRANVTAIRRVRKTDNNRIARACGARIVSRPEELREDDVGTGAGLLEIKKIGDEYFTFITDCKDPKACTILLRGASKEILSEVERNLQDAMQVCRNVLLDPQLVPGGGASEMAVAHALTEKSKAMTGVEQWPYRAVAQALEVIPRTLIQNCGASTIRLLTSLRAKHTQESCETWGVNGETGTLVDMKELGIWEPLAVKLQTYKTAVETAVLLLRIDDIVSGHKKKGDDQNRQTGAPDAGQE
Briefly: superimposable bands, 6% non-denaturing PAGE Western blot of sucrose fractions 13 and 14; footnote: not very clear in mouse testis but substantiated in Human 293 cells.

Consider eight molecules from patent publication US7018791B1, “Binding complexes” (Institute of Cancer Research: Royal Cancer Hospital, priority 1997, dated 2006).

T3 sequence (P11983 whole entry): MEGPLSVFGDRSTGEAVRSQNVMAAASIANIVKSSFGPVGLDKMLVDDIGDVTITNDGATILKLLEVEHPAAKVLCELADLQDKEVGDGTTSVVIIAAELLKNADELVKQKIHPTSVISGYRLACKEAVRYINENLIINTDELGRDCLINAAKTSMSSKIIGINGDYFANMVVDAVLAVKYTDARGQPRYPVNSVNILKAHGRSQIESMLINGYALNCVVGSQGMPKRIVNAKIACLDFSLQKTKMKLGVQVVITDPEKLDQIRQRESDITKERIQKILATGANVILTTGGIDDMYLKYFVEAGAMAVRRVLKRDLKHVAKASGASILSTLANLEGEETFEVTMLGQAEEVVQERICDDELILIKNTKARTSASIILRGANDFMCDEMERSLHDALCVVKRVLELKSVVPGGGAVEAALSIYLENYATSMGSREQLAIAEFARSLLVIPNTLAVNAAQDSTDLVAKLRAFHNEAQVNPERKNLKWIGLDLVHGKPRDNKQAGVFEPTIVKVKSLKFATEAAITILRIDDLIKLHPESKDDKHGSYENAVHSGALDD
Protocol for mouse CCTγ subunit: as §1

With “biotin-SGSG-AAAAAQGVMVGMGQK [peptide 8.6]”, the “effect of alanine substitution in GRPRH core sequence on binding to CCT” value in the experiment on CCT [1] (free solution assay, derivatives of peptide 8) is on record as “abrogation of binding to CCT”.

On to biotin-SGSG-GRPRHQGVMVGMGQK [peptide 8], for which the “binding of peptide to CCT in free solution (co-migration with CCT complex)” value in the experiment with CCT [1] (biotinylated peptide, non denaturing gel) is recorded as “co-migrate with the CCT complex”.

B1: Cyclin D1: mouse cyclin D1 translated in rabbit reticulocyte lysate (protein)
chain: MEHQLLCCEVETIRRAYPDTNLLNDRVLRAMLKTEETCAPSVSYFKCVQKEIVPSMRKIVATWMLEVCEEQKCEEEVFPLAMNYLDRFLSLEPLKKSRLQLLGATCMFVASKMKETIPLTAEKLCIYTDNSIRPEELLQMELLLVNKLKWNLAAMTPHDFIEHFLSKMPEADENKQTIRKHAQTFVALCATDVKFISNPPSMVAAGSVVAAMQGLNLGSPNNFLSCYRTTHFLSRVIKCDPDCLRACQEQIEALLESSLRQAQQNVDPKATEEEGEVEEEAGLACTPTDVRDVDI
On to B1, for which the “binding to CCT (binding partner)” value in the experiment with CCT [2] is “specific binding partners for CCT”.

B2: human CCTβ subunit (human 293 cells) (other, UniProt P78371 2-535, looked up)
chain: ASLSLAPVNIFKAGADEERAETARLTSFIGAIAIGDLVKSTLGPKGMDKILLSSGRDASLMVTNDGATILKNIGVDNPAAKVLVDMSRVQDDEVGDGTTSVTVLAAELLREAESLIAKKIHPQTIIAGWREATKAAREALLSSAVDHGSDEVKFRQDLMNIAGTTLSSKLLTHHKDHFTKLAVEAVLRLKGSGNLEAIHIIKKLGGSLADSYLDEGFLLDKKIGVNQPKRIENAKILIANTGMDTDKIKIFGSRVRVDSTAKVAEIEHAEKEKMKEKVERILKHGINCFINRQLIYNYPEQLFGAAGVMAIEHADFAGVERLALVTGGEIASTFDHPELVKLGSCKLIEEVMIGEDKLIHFSGVALGEACTIVLRGATQQILDEAERSLHDALCVLAQTVKDSRTVYGGGCSEMLMAHAVTQLANRTPGKEAVAMESYAKALRMLPTIIADNAGYDSADLVAQLRAAHSEGNTTAGLDMREGTIGDMAILGITESFQVKRQVLLSAAEAAEVILRVDNIIKAAPRKRVPDHHPC
Take B2: the binding result in experiment [3] is “binds”.

B3: mouse CCTη subunit (other, UniProt P80313 1-544, looked up)
chain: MMPTPVILLKEGTDSSQGIPQLVSNISACQVIAEAVRTTLGPRGMDKLIVDGRGKATISNDGATILKLLDVVHPAAKTLVDIAKSQDAEVGDGTTSVTLLAAEFLKQVKPYVEEGLHPQIIIRAFRTATQLAVNKIKEIAVTVKKQDKVEQRKMLEKCAMTALSSKLISQQKVFFAKMVVDAVMMLDELLQLKMIGIKKVQGGALEESQLVAGVAFKKTFSYAGFEMQPKKYKNPKIALLNVELELKAEKDNAEIRVHTVEDYQAIVDAEWNILYDKLEKIHQSGAKVILSKLPIGDVATQYFADRDMFCAGRVPEEDLKRTMMACGGSIQTSVNALVPDVLGHCQVFEETQIGGERYNFFTGCPKAKTCTIILRGGAEQFMEETERSLHDAIMIVRRAIKNDSVVAGGGAIEMELSKYLRDYSRTIPGKQQLLIGAYAKALEIIPRQLCDNAGFDATNILNKLRARHAQGGMWYGVDINNENIADNFQAFVWEPAMVRINALTAASEAACLIVSVDETIKNPRSTVDPPAPSAGRGRGQARFH
notes: Endogenous subunit in mouse testis sucrose fractions
Regarding B3, the binding result in experiment [4] is “binds”.

B4: Cyclin D2: cyclin D2, CCT binding partner (protein, UniProt P30279 1-289, looked up)
G1/S-specific cyclin-D2: MELLCHEVDPVRRAVRDRNLLRDDRVLQNLLTIEERYLPQCSYFKCVQKDIQPYMRRMVATWMLEVCEEQKCEEEVFPLAMNYLDRFLAGVPTPKSHLQLLGAVCMFLASKLKETSPLTAEKLCIYTDNSIKPQELLEWELVVLGKLKWNLAAVTPHDFIEHILRKLPQQREKLSLIRKHAQTFIALCATDFKFAMYPPSMIATGSVGAAICGLQQDEEVSSLTCDALTELLAKITNTDVDCLKACQEQIEAVLLNSLQQYRQDQRDGSKSEDELDQASTPTDVRDIDL
Consider B4, for which, in the experiment on CCT [2], the “binding to CCT (binding partner)” value is “specific binding partners for CCT”.

B5: mouse CCTε subunit (other, UniProt P80316 2-541, looked up)
chain: ASVGTLAFDEYGRPFLIIKDQDRKSRLMGLEALKSHIMAAKAVANTMRTSLGPNGLDKMMVDKDGDVTITNDGATILSMMDVDHQIAKLMVELSKSQDDEIGDGTTGVVVLAGALLEEAEQLLDRGIHPIRIADGYEQAARIAIQHLDKISDKVLVDINNPEPLIQTAKTTLGSKVINSCHRQMAEIAVNAVLTVADMERRDVDFELIKVEGKVGGRLEDTKLIKGVIVDKDFSHPQMPKKVVDAKIAILTCPFEPPKPKTKHKLDVMSVEDYKALQKYEKEKFEEMIKQIKETGANLAICQWGFDDEANHLLLQNGLPAVRWVGGPEIELIAIATGGRIVPRFSELTSEKLGFAGVVQEISFGTTKDKMLVIEKCKNSRAVTIFIRGGNKMIIEEAKRSLHDALCVIRNLIRDNRVVYGGGAAEISCALAVSQEADKCPTLEQYAMRAFADALEVIPMALSENSGMNPIQTMTEVRARQVKESNPALGIDCLHKGSNDMQYQHVIETLIGKKQQISLATQMVRMILKIDDIRKPGESEE
notes: as for B3
As for B5, the binding result in experiment [4] was “binds”.

B6: mouse CCTβ subunit (other, UniProt P80314 2-535, looked up)
chain: ASLSLAPVNIFKAGADEERAETARLSSFIGAIAIGDLVKSTLGPKGMDKILLSSGRDAALMVTNDGATILKNIGVDNPAAKVLVDMSRVQDDEVGDGTTSVTVLAAELLREAESLIAKKIHPQTIISGWREATKAAREALLSSAVDHGSDEARFWQDLMNIAGTTLSSKLLTHHKDHFTKLAVEAVLRLKGSGNLEAIHVIKKLGGSLADSYLDEGFLLDKKIGVNQPKRIENAKILIANTGMDTDKIKIFGSRVRVDSTAKVAEIEHAEKEKMKEKVERILKHGINCFINRQLIYNYPEQLFGAAGVMAIEHADFAGVERLALVTGGEIASTFDHPELVKLGSCKLIEEVMIGEDKLIHFSGVALGEACTIVLRGATQQILDEAERSLHDALCVLAQTVKDPRTVYGGGCSEMLMAHAVTQLANRTPGKEAVAMESFAKALRMLPTIIADNAGYDSADLVAQLRAAHSEGHITAGLDMKEGTIGDMAVLGITESFQVKRQVLLSAAEAAEVILRVDNIIKAAPRKRVPDHHPC
notes: as for B3
B6: the binding result in the experiment with mouse CCTγ subunit is recorded as “binds”.
